Laboratory results reported in the PETadex activity labels (doi:10.1101/2025.08.30.673199).
Where a chain is given by its changes, count along the chain named.

B1: unnamed (protein)
chain: MKAPLFKLAAFTLGVSLSSVALATNPGGGGAGSNPDTGTGFPGVSSFSADGSFATTSGSAGLSCTVFRPSTLGANGLKHPIIVWGNGTTASPSTYSGILEHWASHGFVVIAANTSNAGTGQDMLNCVDYLTTQNNRSTGTYANKLDLNRIGAAGHSQGGGGTIMAGQDYRIKVTAPFQPYTIGLGHNSSSQSNQNGPMFLMTGSADTIASPTLNALPVYNRANVPVFWGELSGASAFEPVGSAGDFRGPSTAWFRYHLMDDASAEDTFYGSNCDLCTDNDWDVRRKGIN
B2: unnamed (protein)
chain: B1 chain with A236H, F237I
B3: unnamed (protein)
chain: B1 chain with G183A, A236H
B4: unnamed (protein)
chain: B1 chain with Y180W, A236H

Substrate: PET
Assay: Proxy for plastic degradation [Released monomer concentration (HPLC/LC-MS) (TPA+MHET+BHET)]
Details: pH 9

Protein | Proxy for plastic degradation
B1 | 10 µM
B2 | 1280 µM
B3 | 600 µM
B4 | 195 µM
